{"source": "paper PMC10326918", "biological_target": "Concanavalin A (Canavalia ensiformis)", "assay": "native MS; static nESI under native-like conditions, 200 mM ammonium acetate pH 6.8, 5 uM monomer; tetramer [M + 21H]21+ ions (m/z 4901) selected with the quadrupole, then 193 nm UVPD or HCD, read by Orbitrap or orthogonal TOF/TPX3; tetramer dissociates to monomers and trimers"}
{"substance": "Concanavalin A (natural protein)", "values": [{"measurement": "stoichiometry N", "value": 4}]}
